According to patent publication US20200339670A1 (published 2020):

B1: recombinant mutant ASC specks (recASC; K21A, K22A and K26A) in the ASC-PYD domain (other)
chain: MGRARDAILDALENLTAEELAAFKLALLSVPLREGYGRIPRGALLSMDALDLTDKLVSFYLETYGAELTANVLRDMGLQEMAGQLQAATHQGSGAAPAGIQAPPQSAAKPGLHFIDQHRAALIARVTNVEWLLDALYGKVLTDEQYQAVRAEPTNPSKMRKLFSFTPAWNWTCKDLLLQALRESQSYLVEDLERS
notes: Made and prepared as the wild-type recombinant protein; also called recASC K21A, K22A, K26A; ASC-PYD mutant; not shown: TEV protease cleavage site; mCherry; C-terminal hexa-histidine tag from pET-23a
B2: ASC specks released by immunostimulated wild-type primary murine microglia or murine macrophages (other, UniProt Q9EPB4 1-193, looked up)
chain: MGRARDAILDALENLSGDELKKFKMKLLTVQLREGYGRIPRGALLQMDAIDLTDKLVSYYLESYGLELTMTVLRDMGLQELAEQLQTTKEESGAVAAAASVPAQSTARTGHFVDQHRQALIARVTEVDGVLDALHGSVLTEGQYQAVRAETTSQDKMRKLFSFVPSWNLTCKDSLLQALKEIHPYLVMDLEQS
notes: Endogenous protein in cell-free supernatants; aggregated (speck) form; also called Microglia released ASC specks

Columns and labels:
[1] = molecular target: the molecule itself; test: immunoblot for ASC over incubation time (self-association)
TAMRA-labelled Aβ1-42 = molecular target: T1, TAMRA-labelled Aβ1-42 (UniProt P05067 672-713, TAMRA label (position not given)); test: flow cytometry of supernatants of immunostimulated primary microglia incubated with Aβ1-42
T1 construct: domain: Aβ1-42; also called TAMRA-Aβ1-42; TAMRA-Aβ
Procedure: Supernatants containing ASC specks were subsequently incubated with Aβ₁₋₄₂ for 6 h and thereafter analyzed by flow cytometry. (b) Upper panel: Immunoprecipitation and immunoblot detection of ASC in unstimulated, immunoactivated wildtype (wt) and ASC knockout (ASC^{-/-}) macrophages. ASC monomer detection is restricted to supernatants of immunoactivated, ASC-competent wt cells and absent in unstimulated wt cells or ASC^{-/-} macrophages. Lower panel: Immunoprecipitation of ASC followed by immunoblot detection of Aβ under the same experimental conditions as described for the upper panel. ASC bound Aβ is exclusively detected in supernatants derived from immunoactivated wt macrophages but not from unstimulated wt or ASC^{-/-} cells. (c) Upper panel: Immunoprecipitation of ASC and immunoblot detection of ASC in unstimulated, immunoactivated wt and ASC^{-/-} microglia. ASC monomer detection is restricted to supernatants of immunoactivated ASC competent wt cells and absent in unstimulated wt cells or ASC^{-/-} macrophages. […] ASC bound Aβ is exclusively detected in supernatants derived from immunoactivated wt microglia but not from unstimulated wt or ASC^{-/-} cells. […] (f) Flow cytometry quantification of ASC-TAMRA-labelled […] after immunostimulation of microglia. […]

T1 sequence (P05067 672-713 limits assumed): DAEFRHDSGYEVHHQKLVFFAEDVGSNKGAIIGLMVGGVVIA

Binder	binding result [1]	binding result (TAMRA-labelled Aβ1-42)
B1	no binding	–
B2	–	binds
